The values below come from paper PMC9274004, “Deciphering the Molecular Interaction Between the Adhesion G Protein-Coupled Receptor ADGRV1 and its PDZ-Containing Regulator PDZD7” (Frontiers in Molecular Biosciences, 2022).

For assay [1], the system named is harmonin supramodule. The conditions noted are these: for protocadherin-15; ref Michel et al., 2020; cited from earlier work. From the text: These folded extensions modulate the affinity of associated PDZ domains for their partners and promote the formation of domain assembly. In harmonin, this extension folds as a hairpin followed by a short α-helix mediating the formation of a heterotopic supramodule between the first PDZ and the upstream Harmonin Homology Domain (HHD) and forming direct contacts with residues upstream of the partner’s PBM ([Yan et al., 2010]) (PDB e ...

Assay [2] has as its target T1, PDZD7 second PDZ domain (PDZ2 construct; G206 to G292) (mouse, UniProt E9Q9W7-1 206-292).
T1 construct: PDZD7, mouse, long isoform (Uniprot E9Q9W7-1), residues 206-292; source: E. coli BL21 DE3, purified (GSTrap, on-column TEV cleavage, SEC); not shown: GST, N-terminal, cleaved
T1 sequence (looked up): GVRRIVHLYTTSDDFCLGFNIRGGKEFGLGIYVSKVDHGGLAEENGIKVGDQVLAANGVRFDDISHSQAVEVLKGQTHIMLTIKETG
The assay can be described thus: MST; label-free; PDZ2 at 140 μM in MES pH6 (50 mM) mixed 1:1 with a serial dilution of ADGRV1pbm peptide; apparent Kd. The conditions noted are these: both partners purified.

The target of assay [3] is T2, PDZD7 first PDZ domain (PDZ1 construct; A81 to G167) (mouse, Natural entry residue kept at 81: the paper prints A81 but the entry has Ser, so the Ala is probably a cloning junction or a misprint. The GST tag was removed by TEV; a short N-terminal scar is possib).
T2 chain: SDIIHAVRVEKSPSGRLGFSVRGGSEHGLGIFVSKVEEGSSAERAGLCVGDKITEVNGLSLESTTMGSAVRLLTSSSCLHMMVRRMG
The assay is described as follows: NMR titration; 1H-15N HSQC chemical shift perturbations of the labelled PDZ construct on addition of ADGRV1pbm peptide; Tris HCl pH 7.5 (50 mM), 25°C; apparent Kd, mean over at least 10 shifting peaks. Particulars: both partners purified.

In assay [4] the target is PDZD7 PDZ tandem P1P2 G103R (mouse). The assay is described as follows: other fluorescence titration; tryptophan fluorescence (excitation 295 nm) of P1P2 at 2 µM in Phosphate Buffer pH 6.6 (50 mM) on progressive addition of ADGRV1pbm peptide or the cytoplasmic domain; apparent Kd.
Assay [5] has as its target T3, PDZD7 PDZ tandem (P1P2 construct; A81 to G313) (mouse).
T3 sequence (E9Q9W7 81-313, looked up): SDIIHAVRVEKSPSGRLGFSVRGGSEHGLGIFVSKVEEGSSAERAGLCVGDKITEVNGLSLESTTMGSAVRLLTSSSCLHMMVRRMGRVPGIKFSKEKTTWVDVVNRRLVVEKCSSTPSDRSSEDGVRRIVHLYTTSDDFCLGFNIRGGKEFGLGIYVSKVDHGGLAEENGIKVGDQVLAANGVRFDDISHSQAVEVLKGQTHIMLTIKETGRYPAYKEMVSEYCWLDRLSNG
The assay is described as above.

Assay [6] has as its target T4, PDZD7 second PDZ domain with its C-terminal extension (PDZ2ext construct; G206 to G313) (mouse, UniProt E9Q9W7-1 206-313).
T4 construct: also called PDZ2ext WT; source: E. coli BL21 DE3, purified (GSTrap, on-column TEV cleavage, SEC); not shown: GST, N-terminal, cleaved
T4 sequence (looked up): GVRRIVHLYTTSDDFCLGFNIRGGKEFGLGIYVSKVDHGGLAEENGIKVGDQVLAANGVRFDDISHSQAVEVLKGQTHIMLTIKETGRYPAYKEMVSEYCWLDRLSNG
The assay can be described thus: other fluorescence titration; tryptophan fluorescence (excitation 295 nm) of PDZ2ext at 5 µM in Tris HCl pH 7.5 (50 mM) on progressive addition of ADGRV1pbm peptide; apparent Kd. The conditions noted are these: both partners purified.

Assay [7] has as its target PDZD7 PDZ1ext G103R (mouse). The assay is described as follows: NMR titration; 1H-15N HSQC chemical shift perturbations of the labelled PDZ construct on addition of ADGRV1pbm peptide; Tris HCl pH 7.5 (50 mM), 25°C; apparent Kd, mean over at least 10 shifting peaks.
The target of assay [8] is T5, PDZD7 first PDZ domain with its C-terminal extension (PDZ1ext construct; A81 to E192) (mouse).
T5 sequence (E9Q9W7 81-192, looked up): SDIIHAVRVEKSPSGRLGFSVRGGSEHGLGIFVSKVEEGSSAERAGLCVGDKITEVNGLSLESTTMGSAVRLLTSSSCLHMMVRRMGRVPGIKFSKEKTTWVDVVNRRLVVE
The description is as above.

Assay [9] shares this target. The assay can be described thus: NMR titration; chemical shift perturbations of PDZ1ext or N-PDZ1ext with the whole ADGRV1 cytoplasmic domain or the PBM peptide; apparent Kd, mean over at least ten shifting peaks; buffer not given for these titrations.
The target of assay [10] is PDZD7 N-terminus with PDZ1 and its extension (N-PDZ1ext construct; M1-E192) (mouse) (UniProt E9Q9W7). The description is as above.
The target in assay [11] is T6, PDZD7 PDZ1ext (81-192) (Mus musculus, UniProt E9Q9W7).
T6 construct: PDZ1 (81-167), PDZ1ext (81-192); GST (followed by TEV site) (N, cleaved yes); made in house; host or cells: E. coli BL21 DE3
T6 sequence (E9Q9W7 81-192): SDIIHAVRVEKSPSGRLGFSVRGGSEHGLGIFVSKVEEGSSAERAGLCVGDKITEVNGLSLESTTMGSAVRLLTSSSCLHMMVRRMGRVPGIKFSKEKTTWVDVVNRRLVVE
The assay is described as follows: NMR titration of PDZ1ext with ADGRV1 ligands. It counts as binding, murine. The conditions noted are these: NMR titration, 25°C; apparent Kd, SD over at least ten shifting peaks; ligand whole cytoplasmic domain; read-out: Kd (Cyto). As for the experimental part: All experiments were recorded at 25°C on a Bruker 800 MHz spectrometer equipped with a triple resonance ^1H{^13C/^15N} cryoprobe. The ^1H, ^15 N and ^13C backbone resonances assignment of PDZ1ext was carried out using 3D HNCA, HNCACB, HNCO, HNCOCA experiments (Tris HCl buffer adjusted to pH 6). The 2D ^1H-^15N HSQC spectra used to compare PDZ1, PDZ1ext, PDZ2 and PDZ2ext were recorded in Tris HCl pH 7.5 (50 mM). The 2D ^1H-^15N HSQC spectra used to compare PDZ1ext, PDZ2ext and P1P2 were recorded in Phosphate Buffer pH 6.5 (50 mM). Titration experiments of PDZ1 (WT), PDZ1ext (WT) and PDZ1ext (G103R) against ADGRV1pbm peptide were performed in Tris HCl pH 7.5 (50 mM). Averaged Chemical Shifts Perturbations (CSP) were calculated as: Δδavg = ((Δδ(^1H))^2+(Δδ(^15N)*0.159)^2)^½. […]
We monitored the interaction between PDZD7 constructs and a peptide (ADGRV1pbm) corresponding to the last 13 residues of ADGRV1, encompassing its PBM (sequence VELRRIPIADTHL-COOH; PBM underlined). We measured apparent Kd values of our constructs towards ADGRV1pbm using several biophysical methods (NMR, fluorescence, MicroScale Thermophoresis (MST)) (Table 1; Supplementary Figure S3–S5). […]

In assay [12] the target is T7, PDZD7 N-PDZ1ext (Mus musculus, UniProt E9Q9W7).
T7 construct: including the N-terminus of the protein (N-PDZ1ext construct; M1-E192); GST (followed by TEV site) (N, cleaved yes); made in house; host or cells: E. coli BL21 DE3
T7 sequence (E9Q9W7 1-192): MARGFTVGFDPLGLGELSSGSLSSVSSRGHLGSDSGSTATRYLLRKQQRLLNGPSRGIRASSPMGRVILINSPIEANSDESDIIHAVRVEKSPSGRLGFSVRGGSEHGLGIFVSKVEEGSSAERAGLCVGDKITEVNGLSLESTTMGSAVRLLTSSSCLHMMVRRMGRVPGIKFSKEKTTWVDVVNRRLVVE
The assay is described as follows: NMR titration of N-PDZ1ext with ADGRV1 ligands. It counts as binding, murine. As to the method:
All experiments were recorded at 25°C on a Bruker 800 MHz spectrometer equipped with a triple resonance ^1H{^13C/^15N} cryoprobe. The ^1H, ^15 N and ^13C backbone resonances assignment of PDZ1ext was carried out using 3D HNCA, HNCACB, HNCO, HNCOCA experiments (Tris HCl buffer adjusted to pH 6). The 2D ^1H-^15N HSQC spectra used to compare PDZ1, PDZ1ext, PDZ2 and PDZ2ext were recorded in Tris HCl pH 7.5 (50 mM). The 2D ^1H-^15N HSQC spectra used to compare PDZ1ext, PDZ2ext and P1P2 were recorded in Phosphate Buffer pH 6.5 (50 mM). Titration experiments of PDZ1 (WT), PDZ1ext (WT) and PDZ1ext (G103R) against ADGRV1pbm peptide were performed in Tris HCl pH 7.5 (50 mM). Averaged Chemical Shifts Perturbations (CSP) were calculated as: Δδavg = ((Δδ(^1H))^2+(Δδ(^15N)*0.159)^2)^½. For the determination of dissociation constants (Kd) of each peptide/PDZ interaction, averaged CSP δavg was plotted as a function of the molar ratio (peptide/PDZ) for several peaks and fitted using nonlinear regression and assuming a simple complex formation model.
The P1P2 tandem of PDZD7 is preceded by 80 residues with no predicted secondary or tertiary structure, but which could contribute to the interaction with ADGRV1. […] We first aimed at identifying potential secondary structures in both PDZD7 N-terminal region and ADGRV1 cytoplasmic domain. To this end, we produced both an extended PDZ1ext construct, including the N-terminus of the protein (N-PDZ1ext construct; M1-E192) and the whole ADGRV1 cytoplasmic domain of 152 residues.
On the overlay of PDZ1ext and N-PDZ1ext HSQC spectra, there is no significant chemical shift changes on PDZ1ext due to the presence of the N-terminal region (CSPs <0.04 ppm). […] We used the entire cytoplasmic domain of ADGRV1 as partner of PDZD7 in NMR and fluorescence titrations experiments. […] Finally, we measured Kd values in the few micromolar range between the tandem P1P2 and the whole cytoplasmic domain and the last 13 residues of ADGRV1 by fluorescence experiments.

Take “protocadherin-15: partner of harmonin supramodule”: in assay [1], the “increased affinity of harmonin supramodule vs isolated PDZ” value is reported as about 10 fold.

B1: ADGRV1pbm peptide (last 13 residues of ADGRV1, with its PDZ binding motif) (peptide)
peptide: VELRRIPIADTHL
notes: ADGRV1, last 13 residues, free C-terminal carboxylate as printed (-COOH); The other ADGRV1 constructs are murine
On to B1, for which the Kd in assay [2] came to 313 µM; in assay [3] it was 1310 µM; in assay [4] it was 1.9 µM; in assay [5] it was 1.6 µM; in assay [6], 3.1 µM; in assay [7], 1190 µM. For the same molecule, the Kd in assay [8] came to 47 µM.

B2: ADGRV1 whole cytoplasmic domain (domain or fragment)
chain: HNQTCCPMKASYTVEMNGHPGPSTAFFTPGSGIPPAGEINKSTQNLINAMEEVPSDWERSSFQQTSQASPDLKTSPQNGASFPSSGGYGPGSLIADEESQEFDDLIFALKTGAGLSVSDNESGQGSQEGGTLTDSQIVELRRIPIADTHL
For B2, the Kd was determined as 41 µM in [9], 241 µM in assay [10] and 8.1 µM in assay [5].

B3: ADGRV1 whole cytoplasmic domain: whole ADGRV1 cytoplasmic domain of 152 residues, murine long isoform (CCDS36737; 6149-6298) (protein)
chain: HNQTCCPMKASYTVEMNGHPGPSTAFFTPGSGIPPAGEINKSTQNLINAMEEVPSDWERSSFQQTSQASPDLKTSPQNGASFPSSGGYGPGSLIADEESQEFDDLIFALKTGAGLSVSDNESGQGSQEGGTLTDSQIVELRRIPIADTHL
modifications: left off: Histidine tag, N-terminal, cleaved
On to B3, for which the Kd is 41 ± 14 µM in assay [11] and 241 ± 115 µM in assay [12] (NMR titration, 25°C, SD over at least ten shifting peaks, ligand whole cytoplasmic domain, read-out: Kd (Cyto)). The molecule further yielded a decrease in affinity in [12] (due to the long unfolded N-terminus region, N-PDZ1ext vs PDZ1ext) of 6 fold.
